Experimental data from patent EP4745153A1, “GLP-1, GIP AND GCG RECEPTOR […] USE THEREOF” (Jiangsu Hengrui Pharmaceuticals Co., Ltd., priority 2023, dated 2025).
Like-named read-outs stand apart in the source and are kept apart here. Starred links: 1 amine or outer side, 2 acyl side, 3 side chain; linkers in the order of their positions; H or OH if unused. Non-standard residues stand in square brackets, D forms with d. Groups on a side chain read outwards from the residue. No end group written: not given here. *: point of attachment. C20 diacid = O=C(O)CCCCCCCCCCCCCCCCCCC(=O)*; C17 diacid = O=C(O)CCCCCCCCCCCCCCCC(=O)*; γGlu = O=C(O)[C@H](CCC(=O)[*:2])N[*:1]; αMeY = C[C@](N)(Cc1ccc(O)cc1)C(=O)O; αMeL = CC(C)C[C@](C)(N)C(=O)O; αMeK = C[C@](N)(CCCCN)C(=O)O; Iva = CC[C@](C)(N)C(=O)O; AEEA = NCCOCCOCC(=O)O; Aib = CC(C)(N)C(=O)O

B1: Compound No. 0139 (peptide)
peptide: H[Aib]HGTFTSDYSI[αMeL]LEK([AEEA-AEEA-γGlu-C20 diacid])KAAQEFVEWLLA[dE]GPSSGAPPPS-NH2
modifications: N-terminus assumed
SMILES: CC[C@H](C)[C@H](NC(=O)[C@H](CO)NC(=O)[C@H](Cc1ccc(O)cc1)NC(=O)[C@H](CC(=O)O)NC(=O)[C@H](CO)NC(=O)[C@@H](NC(=O)[C@H](Cc1ccccc1)NC(=O)[C@@H](NC(=O)CNC(=O)[C@H](Cc1c[nH]cn1)NC(=O)C(C)(C)NC(=O)[C@@H](N)Cc1c[nH]cn1)[C@@H](C)O)[C@@H](C)O)C(=O)N[C@@](C)(CC(C)C)C(=O)N[C@@H](CC(C)C)C(=O)N[C@@H](CCC(=O)O)C(=O)N[C@@H](CCCCNC(=O)COCCOCCNC(=O)COCCOCCNC(=O)CC[C@H](NC(=O)CCCCCCCCCCCCCCCCCCC(=O)O)C(=O)O)C(=O)N[C@@H](CCCCN)C(=O)N[C@@H](C)C(=O)N[C@@H](C)C(=O)N[C@@H](CCC(N)=O)C(=O)N[C@@H](CCC(=O)O)C(=O)N[C@@H](Cc1ccccc1)C(=O)N[C@H](C(=O)N[C@@H](CCC(=O)O)C(=O)N[C@@H](Cc1c[nH]c2ccccc12)C(=O)N[C@@H](CC(C)C)C(=O)N[C@@H](CC(C)C)C(=O)N[C@@H](C)C(=O)N[C@H](CCC(=O)O)C(=O)NCC(=O)N1CCC[C@H]1C(=O)N[C@@H](CO)C(=O)N[C@@H](CO)C(=O)NCC(=O)N[C@@H](C)C(=O)N1CCC[C@H]1C(=O)N1CCC[C@H]1C(=O)N1CCC[C@H]1C(=O)N[C@@H](CO)C(N)=O)C(C)C
B2: Compound No. 0104 (peptide)
peptide: H[Aib]HGTFTSDYS[αMeK]YLEK([AEEA-AEEA-γGlu-C20 diacid])KAAQEFVEWLLAGGPSSGAPPPS-NH2
modifications: N-terminus assumed
SMILES: CC(C)C[C@H](NC(=O)[C@H](CC(C)C)NC(=O)[C@H](Cc1c[nH]c2ccccc12)NC(=O)[C@H](CCC(=O)O)NC(=O)[C@@H](NC(=O)[C@H](Cc1ccccc1)NC(=O)[C@H](CCC(=O)O)NC(=O)[C@H](CCC(N)=O)NC(=O)[C@H](C)NC(=O)[C@H](C)NC(=O)[C@H](CCCCN)NC(=O)[C@H](CCCCNC(=O)COCCOCCNC(=O)COCCOCCNC(=O)CC[C@H](NC(=O)CCCCCCCCCCCCCCCCCCC(=O)O)C(=O)O)NC(=O)[C@H](CCC(=O)O)NC(=O)[C@H](CC(C)C)NC(=O)[C@H](Cc1ccc(O)cc1)NC(=O)[C@](C)(CCCCN)NC(=O)[C@H](CO)NC(=O)[C@H](Cc1ccc(O)cc1)NC(=O)[C@H](CC(=O)O)NC(=O)[C@H](CO)NC(=O)[C@@H](NC(=O)[C@H](Cc1ccccc1)NC(=O)[C@@H](NC(=O)CNC(=O)[C@H](Cc1c[nH]cn1)NC(=O)C(C)(C)NC(=O)[C@@H](N)Cc1c[nH]cn1)[C@@H](C)O)[C@@H](C)O)C(C)C)C(=O)N[C@@H](C)C(=O)NCC(=O)NCC(=O)N1CCC[C@H]1C(=O)N[C@@H](CO)C(=O)N[C@@H](CO)C(=O)NCC(=O)N[C@@H](C)C(=O)N1CCC[C@H]1C(=O)N1CCC[C@H]1C(=O)N1CCC[C@H]1C(=O)N[C@@H](CO)C(N)=O
B3: Compound No. 0127 (peptide)
peptide: Y[Aib]QGTFTSDYS[αMeK]LLEK([AEEA-AEEA-γGlu-C20 diacid])KAA[Iva]EFVEWLLAGGPSSGAPPPS-NH2
B4: Compound No. 0106 (peptide)
peptide: H[Aib]HGTFTSDYSK[αMeY]LEK([AEEA-AEEA-γGlu-C17 diacid])KAAQEFVEWLLAGGPSSGAPPPS-NH2
modifications: N-terminus assumed
SMILES: CC(C)C[C@H](NC(=O)[C@H](CC(C)C)NC(=O)[C@H](Cc1c[nH]c2ccccc12)NC(=O)[C@H](CCC(=O)O)NC(=O)[C@@H](NC(=O)[C@H](Cc1ccccc1)NC(=O)[C@H](CCC(=O)O)NC(=O)[C@H](CCC(N)=O)NC(=O)[C@H](C)NC(=O)[C@H](C)NC(=O)[C@H](CCCCN)NC(=O)[C@H](CCCCNC(=O)COCCOCCNC(=O)COCCOCCNC(=O)CC[C@H](NC(=O)CCCCCCCCCCCCCCCC(=O)O)C(=O)O)NC(=O)[C@H](CCC(=O)O)NC(=O)[C@H](CC(C)C)NC(=O)[C@](C)(Cc1ccc(O)cc1)NC(=O)[C@H](CCCCN)NC(=O)[C@H](CO)NC(=O)[C@H](Cc1ccc(O)cc1)NC(=O)[C@H](CC(=O)O)NC(=O)[C@H](CO)NC(=O)[C@@H](NC(=O)[C@H](Cc1ccccc1)NC(=O)[C@@H](NC(=O)CNC(=O)[C@H](Cc1c[nH]cn1)NC(=O)C(C)(C)NC(=O)[C@@H](N)Cc1c[nH]cn1)[C@@H](C)O)[C@@H](C)O)C(C)C)C(=O)N[C@@H](C)C(=O)NCC(=O)NCC(=O)N1CCC[C@H]1C(=O)N[C@@H](CO)C(=O)N[C@@H](CO)C(=O)NCC(=O)N[C@@H](C)C(=O)N1CCC[C@H]1C(=O)N1CCC[C@H]1C(=O)N1CCC[C@H]1C(=O)N[C@@H](CO)C(N)=O
B5: Compound No. 0129 (peptide)
peptide: Y[Aib]QGTFTSDYS[αMeK]ILEK([AEEA-AEEA-γGlu-C20 diacid])KAA[Iva]EFVEWLLAGGPSSGAPPPS-NH2
B6: Compound No. 0130 (peptide)
peptide: H[Aib]HGTFTSDYS[αMeK]ILEK([AEEA-AEEA-γGlu-C20 diacid])QAA[Iva]EFVEWLLAGGPSSGAPPPS-NH2
B7: Compound No. 0131 (peptide)
peptide: H[Aib]HGTFTSDYS[αMeK]LLEK([AEEA-AEEA-γGlu-C20 diacid])KAA[Iva]EFVEWLIEGGPSSGAPPPS-NH2
modifications: N-terminus assumed
SMILES: CC[C@H](C)[C@H](NC(=O)[C@H](CC(C)C)NC(=O)[C@H](Cc1c[nH]c2ccccc12)NC(=O)[C@H](CCC(=O)O)NC(=O)[C@@H](NC(=O)[C@H](Cc1ccccc1)NC(=O)[C@H](CCC(=O)O)NC(=O)[C@](C)(CC)NC(=O)[C@H](C)NC(=O)[C@H](C)NC(=O)[C@H](CCCCN)NC(=O)[C@H](CCCCNC(=O)COCCOCCNC(=O)COCCOCCNC(=O)CC[C@H](NC(=O)CCCCCCCCCCCCCCCCCCC(=O)O)C(=O)O)NC(=O)[C@H](CCC(=O)O)NC(=O)[C@H](CC(C)C)NC(=O)[C@H](CC(C)C)NC(=O)[C@](C)(CCCCN)NC(=O)[C@H](CO)NC(=O)[C@H](Cc1ccc(O)cc1)NC(=O)[C@H](CC(=O)O)NC(=O)[C@H](CO)NC(=O)[C@@H](NC(=O)[C@H](Cc1ccccc1)NC(=O)[C@@H](NC(=O)CNC(=O)[C@H](Cc1c[nH]cn1)NC(=O)C(C)(C)NC(=O)[C@@H](N)Cc1c[nH]cn1)[C@@H](C)O)[C@@H](C)O)C(C)C)C(=O)N[C@@H](CCC(=O)O)C(=O)NCC(=O)NCC(=O)N1CCC[C@H]1C(=O)N[C@@H](CO)C(=O)N[C@@H](CO)C(=O)NCC(=O)N[C@@H](C)C(=O)N1CCC[C@H]1C(=O)N1CCC[C@H]1C(=O)N1CCC[C@H]1C(=O)N[C@@H](CO)C(N)=O
B8: Compound No. 0132 (peptide)
peptide: H[Aib]HGTFTSDYS[αMeK]ILEK([AEEA-AEEA-γGlu-C20 diacid])KAA[Iva]EFVEWLIEGGPSSGAPPPS-NH2
modifications: N-terminus assumed
SMILES: CC[C@H](C)[C@H](NC(=O)[C@H](CC(C)C)NC(=O)[C@H](Cc1c[nH]c2ccccc12)NC(=O)[C@H](CCC(=O)O)NC(=O)[C@@H](NC(=O)[C@H](Cc1ccccc1)NC(=O)[C@H](CCC(=O)O)NC(=O)[C@](C)(CC)NC(=O)[C@H](C)NC(=O)[C@H](C)NC(=O)[C@H](CCCCN)NC(=O)[C@H](CCCCNC(=O)COCCOCCNC(=O)COCCOCCNC(=O)CC[C@H](NC(=O)CCCCCCCCCCCCCCCCCCC(=O)O)C(=O)O)NC(=O)[C@H](CCC(=O)O)NC(=O)[C@H](CC(C)C)NC(=O)[C@@H](NC(=O)[C@](C)(CCCCN)NC(=O)[C@H](CO)NC(=O)[C@H](Cc1ccc(O)cc1)NC(=O)[C@H](CC(=O)O)NC(=O)[C@H](CO)NC(=O)[C@@H](NC(=O)[C@H](Cc1ccccc1)NC(=O)[C@@H](NC(=O)CNC(=O)[C@H](Cc1c[nH]cn1)NC(=O)C(C)(C)NC(=O)[C@@H](N)Cc1c[nH]cn1)[C@@H](C)O)[C@@H](C)O)[C@@H](C)CC)C(C)C)C(=O)N[C@@H](CCC(=O)O)C(=O)NCC(=O)NCC(=O)N1CCC[C@H]1C(=O)N[C@@H](CO)C(=O)N[C@@H](CO)C(=O)NCC(=O)N[C@@H](C)C(=O)N1CCC[C@H]1C(=O)N1CCC[C@H]1C(=O)N1CCC[C@H]1C(=O)N[C@@H](CO)C(N)=O

How the values were obtained:
Experiment in all cases: cell-based or functional assay
[1] = target: T1, human glucagon-like peptide-1 receptor (human, UniProt P43220 24-463)
[2] = target: T2, human glucose-dependent insulinotropic polypeptide receptor (human, UniProt P48546 22-466)
T2 sequence (looked up): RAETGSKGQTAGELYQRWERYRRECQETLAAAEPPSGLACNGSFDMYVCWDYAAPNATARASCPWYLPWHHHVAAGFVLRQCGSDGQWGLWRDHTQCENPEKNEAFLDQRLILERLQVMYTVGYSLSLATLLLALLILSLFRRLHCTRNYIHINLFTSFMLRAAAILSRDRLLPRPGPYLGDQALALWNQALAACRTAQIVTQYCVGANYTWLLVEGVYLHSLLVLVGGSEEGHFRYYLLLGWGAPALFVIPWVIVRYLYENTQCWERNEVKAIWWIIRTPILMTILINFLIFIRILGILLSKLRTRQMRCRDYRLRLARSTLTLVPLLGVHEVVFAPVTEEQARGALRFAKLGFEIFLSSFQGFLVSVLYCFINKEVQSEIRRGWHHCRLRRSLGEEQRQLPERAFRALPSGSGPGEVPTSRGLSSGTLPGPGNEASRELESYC

human glucagon receptor [3] = target: T3, human glucagon receptor (human, UniProt P47871 26-477)
[4] = target: T1, human glucagon-like peptide-1 receptor; remark: listed apart in the source
[5] = target: T2, human glucose-dependent insulinotropic …; remark: listed apart in the source
human glucagon receptor [6] = target: T3, human glucagon receptor; remark: listed apart in the source
[7] = target: T1, human glucagon-like peptide-1 receptor; remark: listed apart in the source
[8] = target: T2, human glucose-dependent insulinotropic …; remark: listed apart in the source
human glucagon receptor [9] = target: T3, human glucagon receptor; remark: listed apart in the source

T3 sequence (P47871 26-477): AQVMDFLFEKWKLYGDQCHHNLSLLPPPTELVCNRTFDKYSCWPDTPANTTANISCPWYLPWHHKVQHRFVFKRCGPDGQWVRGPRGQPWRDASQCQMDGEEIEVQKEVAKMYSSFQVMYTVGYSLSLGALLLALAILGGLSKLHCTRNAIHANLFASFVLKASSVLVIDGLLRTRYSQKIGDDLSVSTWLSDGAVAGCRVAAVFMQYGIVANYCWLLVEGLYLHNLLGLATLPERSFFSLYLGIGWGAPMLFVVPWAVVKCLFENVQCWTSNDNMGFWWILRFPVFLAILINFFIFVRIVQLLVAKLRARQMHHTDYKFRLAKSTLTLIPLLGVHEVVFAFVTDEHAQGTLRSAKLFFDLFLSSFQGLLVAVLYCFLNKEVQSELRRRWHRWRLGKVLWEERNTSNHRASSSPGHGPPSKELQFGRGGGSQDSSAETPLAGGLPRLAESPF

Row | Binder | Activity against human GLP-1R (EC50 nM) [7] [nM] | Activity against human GIPR (EC50 nM) [8] [nM] | Activity against human GCGR (EC50 nM) (human glucagon receptor [9]) [nM] | other results
1 | B1 | – | – | – | Activity against human GLP-1R (EC50 nM) [1]: 0.043 nM; Activity against human GIPR (EC50 nM) [2]: 0.007 nM; Activity against human GCGR (EC50 nM) (human glucagon receptor [3]): 0.43 nM
2 | B2 | – | – | – | Activity against human GLP-1R (EC50 nM) [4]: 0.01 nM; Activity against human GIPR (EC50 nM) [5]: 0.016 nM; Activity against human GCGR (EC50 nM) (human glucagon receptor [6]): 0.037 nM
3 | B3 | 0.132 | 0.0007 | 0.037 | –
4 | B4 | – | – | – | Activity against human GLP-1R (EC50 nM) [4]: 0.03 nM; Activity against human GIPR (EC50 nM) [5]: 0.027 nM; Activity against human GCGR (EC50 nM) (human glucagon receptor [6]): 0.095 nM
5 | B5 | 0.159 | 0.002 | 0.067 | –
6 | B6 | 0.048 | 0.0005 | 0.03 | –
7 | B7 | 0.02 | 0.0007 | 0.026 | –
8 | B8 | 0.024 | 0.001 | 0.03 | –
